Measured values: paper PMC13281853

Target: ancGR2-LBD (ligand-binding domain of the ancestral glucocorticoid receptor 2), Dex-bound
Assay: SPR

Kd: 17.4 µM
Substance: ancGR2-LBD (ligand-binding domain of the ancestral glucocorticoid receptor 2), Dex-bound (domain or fragment)
